Results on six molecules are retold here after publication PMC6193622, “Identification of UHRF2 as a novel DNA interstrand crosslink sensor protein” (PLoS Genetics, 2018).

B1: Flag-UHRF1 with the PHD domain deleted (natural protein, human, UniProt Q96T88-2 1-806, looked up)
chain: MGVFAVPPLSSDTMWIQVRTMDGRQTHTVDSLSRLTKVEELRRKIQELFHVEPGLQRLFYRGKQMEDGHTLFDYEVRLNDTIQLLVRQSLVLPHSTKERDSELSDTDSGCCLGQSESDKSSTHGEAAAETDSRPADEDMWDETELGLYKVNEYVDARDTNMGAWFEAQVVRVTRKAPSRDEPCSSTSRPALEEDVIYHVKYDDYPENGVVQMNSRDVRARARTIIKWQDLEVGQVVMLNYNPDNPKERGFWYDAEISRKRETRTARELYANVVLGDDSLNDCRIIFVDEVFKIERPGEGSPMVDNPMRRKSGPSCKHCKDDVASEVVLAGERLRESKKKAKMASATSSSQRDWGKGMACVGRTKECTIVPSNHYGPIPGIPVGTMWRFRVQVSESGVHRPHVAGIHGRSNDGAYSLVLAGGYEDDVDHGNFFTYTGSGGRDLSGNKRTAEQSCDQKLTNTNRALALNCFAPINDQEGAEAKDWRSGKPVRVVRNVKGGKNSKYAPAEGNRYDGIYKVVKYWPEKGKSGFLVWRYLLRRDDDEPGPWTKEGKDRIKKLGLTMQYPEGYLEALANREREKENSKREEEEQQEGGFASPRTGKGKWKRKSAGGGPSRAGSPRRTSKKTKVEPYSLTAQQSSLIREDKSNAKLWNEVLASLKDRPASGSPFQLFLSKVEETFQCICCQELVFRPITTVCQHNVCKDCLDRSFRAQVFSCPACRYDLGRSYAMQVNQPLQTVLNQLFPGYGNGR
notes: UHRF1, human, amino acids 323-379 (PHD domain) deleted; also called UHRF1 PHD deletion mutant; source: Sf9, purified
B2: Flag-UHRF1 with the UBL domain deleted (natural protein, human, UniProt Q96T88-2 1-806, looked up)
chain: MGVFAVPPLSSDTLPHSTKERDSELSDTDSGCCLGQSESDKSSTHGEAAAETDSRPADEDMWDETELGLYKVNEYVDARDTNMGAWFEAQVVRVTRKAPSRDEPCSSTSRPALEEDVIYHVKYDDYPENGVVQMNSRDVRARARTIIKWQDLEVGQVVMLNYNPDNPKERGFWYDAEISRKRETRTARELYANVVLGDDSLNDCRIIFVDEVFKIERPGEGSPMVDNPMRRKSGPSCKHCKDDVNRLCRVCACHLCGGRQDPDKQLMCDECDMAFHIYCLDPPLSSVPSEDEWYCPECRNDASEVVLAGERLRESKKKAKMASATSSSQRDWGKGMACVGRTKECTIVPSNHYGPIPGIPVGTMWRFRVQVSESGVHRPHVAGIHGRSNDGAYSLVLAGGYEDDVDHGNFFTYTGSGGRDLSGNKRTAEQSCDQKLTNTNRALALNCFAPINDQEGAEAKDWRSGKPVRVVRNVKGGKNSKYAPAEGNRYDGIYKVVKYWPEKGKSGFLVWRYLLRRDDDEPGPWTKEGKDRIKKLGLTMQYPEGYLEALANREREKENSKREEEEQQEGGFASPRTGKGKWKRKSAGGGPSRAGSPRRTSKKTKVEPYSLTAQQSSLIREDKSNAKLWNEVLASLKDRPASGSPFQLFLSKVEETFQCICCQELVFRPITTVCQHNVCKDCLDRSFRAQVFSCPACRYDLGRSYAMQVNQPLQTVLNQLFPGYGNGR
notes: UHRF1, human, amino acids 14-91 (UBL domain) deleted; also called UHRF1 UBL deletion mutant; source: Sf9, purified
B3: Flag-UHRF1 with the RING domain deleted (natural protein, human, UniProt Q96T88-2 1-806, looked up)
chain: MGVFAVPPLSSDTMWIQVRTMDGRQTHTVDSLSRLTKVEELRRKIQELFHVEPGLQRLFYRGKQMEDGHTLFDYEVRLNDTIQLLVRQSLVLPHSTKERDSELSDTDSGCCLGQSESDKSSTHGEAAAETDSRPADEDMWDETELGLYKVNEYVDARDTNMGAWFEAQVVRVTRKAPSRDEPCSSTSRPALEEDVIYHVKYDDYPENGVVQMNSRDVRARARTIIKWQDLEVGQVVMLNYNPDNPKERGFWYDAEISRKRETRTARELYANVVLGDDSLNDCRIIFVDEVFKIERPGEGSPMVDNPMRRKSGPSCKHCKDDVNRLCRVCACHLCGGRQDPDKQLMCDECDMAFHIYCLDPPLSSVPSEDEWYCPECRNDASEVVLAGERLRESKKKAKMASATSSSQRDWGKGMACVGRTKECTIVPSNHYGPIPGIPVGTMWRFRVQVSESGVHRPHVAGIHGRSNDGAYSLVLAGGYEDDVDHGNFFTYTGSGGRDLSGNKRTAEQSCDQKLTNTNRALALNCFAPINDQEGAEAKDWRSGKPVRVVRNVKGGKNSKYAPAEGNRYDGIYKVVKYWPEKGKSGFLVWRYLLRRDDDEPGPWTKEGKDRIKKLGLTMQYPEGYLEALANREREKENSKREEEEQQEGGFASPRTGKGKWKRKSAGGGPSRAGSPRRTSKKTKVEPYSLTAQQSSLIREDKSNAKLWNEVLASLKDRPASGSPFQL
notes: UHRF1, human, amino acids 727-806 (RING domain) deleted; also called UHRF1 RING deletion mutant; source: Sf9, purified
B4: Flag-UHRF1 wild type purified from Sf9 cells (natural protein, human, UniProt Q96T88-2 1-806, looked up)
chain: MGVFAVPPLSSDTMWIQVRTMDGRQTHTVDSLSRLTKVEELRRKIQELFHVEPGLQRLFYRGKQMEDGHTLFDYEVRLNDTIQLLVRQSLVLPHSTKERDSELSDTDSGCCLGQSESDKSSTHGEAAAETDSRPADEDMWDETELGLYKVNEYVDARDTNMGAWFEAQVVRVTRKAPSRDEPCSSTSRPALEEDVIYHVKYDDYPENGVVQMNSRDVRARARTIIKWQDLEVGQVVMLNYNPDNPKERGFWYDAEISRKRETRTARELYANVVLGDDSLNDCRIIFVDEVFKIERPGEGSPMVDNPMRRKSGPSCKHCKDDVNRLCRVCACHLCGGRQDPDKQLMCDECDMAFHIYCLDPPLSSVPSEDEWYCPECRNDASEVVLAGERLRESKKKAKMASATSSSQRDWGKGMACVGRTKECTIVPSNHYGPIPGIPVGTMWRFRVQVSESGVHRPHVAGIHGRSNDGAYSLVLAGGYEDDVDHGNFFTYTGSGGRDLSGNKRTAEQSCDQKLTNTNRALALNCFAPINDQEGAEAKDWRSGKPVRVVRNVKGGKNSKYAPAEGNRYDGIYKVVKYWPEKGKSGFLVWRYLLRRDDDEPGPWTKEGKDRIKKLGLTMQYPEGYLEALANREREKENSKREEEEQQEGGFASPRTGKGKWKRKSAGGGPSRAGSPRRTSKKTKVEPYSLTAQQSSLIREDKSNAKLWNEVLASLKDRPASGSPFQLFLSKVEETFQCICCQELVFRPITTVCQHNVCKDCLDRSFRAQVFSCPACRYDLGRSYAMQVNQPLQTVLNQLFPGYGNGR
notes: UHRF1, human, wild type; the deletion limits printed for its mutants run to residue 806, so the 806-residue isoform is meant; also called wild type UHRF1; Flag-tagged wild type UHRF1; source: Sf9, purified
B5: 6xHis-UHRF2 purified from Sf9 cells (natural protein, human, UniProt Q96PU4 1-802, looked up)
chain: MWIQVRTIDGSKTCTIEDVSRKATIEELRERVWALFDVRPECQRLFYRGKQLENGYTLFDYDVGLNDIIQLLVRPDPDHLPGTSTQIEAKPCSNSPPKVKKAPRVGPSNQPSTSARARLIDPGFGIYKVNELVDARDVGLGAWFEAHIHSVTRASDGQSRGKTPLKNGSSCKRTNGNIKHKSKENTNKLDSVPSTSNSDCVAADEDVIYHIQYDEYPESGTLEMNVKDLRPRARTILKWNELNVGDVVMVNYNVESPGQRGFWFDAEITTLKTISRTKKELRVKIFLGGSEGTLNDCKIISVDEIFKIERPGAHPLSFADGKFLRRNDPECDLCGGDPEKKCHSCSCRVCGGKHEPNMQLLCDECNVAYHIYCLNPPLDKVPEEEYWYCPSCKTDSSEVVKAGERLKMSKKKAKMPSASTESRRDWGRGMACVGRTRECTIVPSNHYGPIPGIPVGSTWRFRVQVSEAGVHRPHVGGIHGRSNDGAYSLVLAGGFADEVDRGDEFTYTGSGGKNLAGNKRIGAPSADQTLTNMNRALALNCDAPLDDKIGAESRNWRAGKPVRVIRSFKGRKISKYAPEEGNRYDGIYKVVKYWPEISSSHGFLVWRYLLRRDDVEPAPWTSEGIERSRRLCLRLQYPAGYPSDKEGKKPKGQSKKQPSGTTKRPISDDDCPSASKVYKASDSAEAIEAFQLTPQQQHLIREDCQNQKLWDEVLSHLVEGPNFLKKLEQSFMCVCCQELVYQPVTTECFHNVCKDCLQRSFKAQVFSCPACRHDLGQNYIMIPNEILQTLLDLFFPGYSKGR
notes: UHRF2, human; also called 6xHis-tagged UHRF2; source: Sf9, purified
B6: Flag-UHRF1 with the TTD domain deleted (natural protein, human, UniProt Q96T88-2 1-806, looked up)
chain: MGVFAVPPLSSDTMWIQVRTMDGRQTHTVDSLSRLTKVEELRRKIQELFHVEPGLQRLFYRGKQMEDGHTLFDYEVRLNDTIQLLVRQSLVLPHSTKERDSELSDTDSGCCLGQSESDKSSTHGEAAAETDSRPADEDMWDETELGEGSPMVDNPMRRKSGPSCKHCKDDVNRLCRVCACHLCGGRQDPDKQLMCDECDMAFHIYCLDPPLSSVPSEDEWYCPECRNDASEVVLAGERLRESKKKAKMASATSSSQRDWGKGMACVGRTKECTIVPSNHYGPIPGIPVGTMWRFRVQVSESGVHRPHVAGIHGRSNDGAYSLVLAGGYEDDVDHGNFFTYTGSGGRDLSGNKRTAEQSCDQKLTNTNRALALNCFAPINDQEGAEAKDWRSGKPVRVVRNVKGGKNSKYAPAEGNRYDGIYKVVKYWPEKGKSGFLVWRYLLRRDDDEPGPWTKEGKDRIKKLGLTMQYPEGYLEALANREREKENSKREEEEQQEGGFASPRTGKGKWKRKSAGGGPSRAGSPRRTSKKTKVEPYSLTAQQSSLIREDKSNAKLWNEVLASLKDRPASGSPFQLFLSKVEETFQCICCQELVFRPITTVCQHNVCKDCLDRSFRAQVFSCPACRYDLGRSYAMQVNQPLQTVLNQLFPGYGNGR
notes: UHRF1, human, amino acids 146-296 (TTD domain) deleted; also called UHRF1 TTD deletion mutant; source: Sf9, purified

The first assay deals with T1, Flag-HA-FANCD2 purified from Sf9 cells (human, UniProt Q9BXW9 1-1451).
T1 construct: FANCD2, human, full-length form; also called Flag-HA-tagged FANCD2; source: Sf9, purified (M2 anti-Flag agarose, Flag peptide elution); not shown: Flag, N-terminal, kept; HA, N-terminal, kept
T1 sequence (Q9BXW9 whole entry): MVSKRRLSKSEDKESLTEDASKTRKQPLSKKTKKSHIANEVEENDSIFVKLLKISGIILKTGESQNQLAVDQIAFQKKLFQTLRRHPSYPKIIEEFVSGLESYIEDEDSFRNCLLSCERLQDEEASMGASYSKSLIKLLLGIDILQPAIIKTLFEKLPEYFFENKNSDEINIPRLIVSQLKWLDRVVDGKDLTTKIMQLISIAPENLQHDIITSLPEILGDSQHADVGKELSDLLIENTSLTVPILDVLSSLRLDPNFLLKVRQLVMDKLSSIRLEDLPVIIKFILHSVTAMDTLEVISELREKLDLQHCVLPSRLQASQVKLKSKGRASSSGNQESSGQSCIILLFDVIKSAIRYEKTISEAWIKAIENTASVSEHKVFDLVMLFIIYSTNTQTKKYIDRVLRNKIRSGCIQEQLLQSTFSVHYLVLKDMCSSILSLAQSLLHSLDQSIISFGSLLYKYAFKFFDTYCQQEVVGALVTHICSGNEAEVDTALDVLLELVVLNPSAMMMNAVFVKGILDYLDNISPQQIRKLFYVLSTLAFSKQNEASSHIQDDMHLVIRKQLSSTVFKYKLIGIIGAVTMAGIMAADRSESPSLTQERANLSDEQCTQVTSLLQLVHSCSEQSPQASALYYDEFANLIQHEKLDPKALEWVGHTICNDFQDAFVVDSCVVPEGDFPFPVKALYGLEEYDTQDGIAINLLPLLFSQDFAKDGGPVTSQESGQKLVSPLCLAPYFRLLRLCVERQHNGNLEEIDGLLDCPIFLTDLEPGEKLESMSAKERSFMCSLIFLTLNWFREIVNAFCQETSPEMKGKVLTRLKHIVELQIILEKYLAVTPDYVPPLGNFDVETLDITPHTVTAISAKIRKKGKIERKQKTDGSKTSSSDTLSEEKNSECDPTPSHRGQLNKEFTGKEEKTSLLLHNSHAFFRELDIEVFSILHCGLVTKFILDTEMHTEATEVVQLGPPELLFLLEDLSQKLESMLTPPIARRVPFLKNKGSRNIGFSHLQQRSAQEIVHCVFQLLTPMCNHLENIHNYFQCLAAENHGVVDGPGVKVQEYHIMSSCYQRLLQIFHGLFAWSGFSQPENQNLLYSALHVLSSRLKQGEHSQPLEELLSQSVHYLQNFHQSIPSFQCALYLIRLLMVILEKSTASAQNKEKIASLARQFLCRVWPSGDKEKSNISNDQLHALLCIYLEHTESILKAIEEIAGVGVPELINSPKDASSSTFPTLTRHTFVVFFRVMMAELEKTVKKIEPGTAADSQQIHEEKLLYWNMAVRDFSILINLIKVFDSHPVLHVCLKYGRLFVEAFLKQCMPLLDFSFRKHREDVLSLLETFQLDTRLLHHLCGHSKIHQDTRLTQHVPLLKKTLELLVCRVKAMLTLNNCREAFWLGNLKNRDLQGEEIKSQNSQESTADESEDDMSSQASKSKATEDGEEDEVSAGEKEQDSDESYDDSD
Briefly: co-IP; in vitro binding assay: 1μg of each protein with 10μg BSA in 20mM Tris-HCl pH 8.0, 150mM KCl, 10% glycerol, 2mM β-ME, 10μl, 37°C 1h; HA-FANCD2 immunoprecipitated on protein A sepharose with anti-HA IgG at 4°C, washed with 0.1% Tween-20, eluted with HA peptide; immunoblotting. As to conditions: both partners purified. In general terms: In western blotting, separated proteins are transferred to a membrane and probed.
With B1, the binding result is recorded as “binds”. As for B2, the binding result is reported as “binds”. In the case of B3, the binding result is “binds”. Same read-out and setting: the entry for B4 is “binds”; for B5 it is “binds”; for B6 it is “binds”.

The target of a further assay is B4. Briefly: co-IP; in vitro binding assay of purified recombinant proteins from Sf9 cells; His-UHRF2 was immunoprecipitated, immunoblotting. The following applies: both partners purified.
Take B5: the binding result is “binds”.
